Patent US20210196796A1 (SYNTHEKINE, published 2021)

T1: orthogonal hCD122 receptor (hoRb), hCD122 with H133D and Y134F (human, UniProt P14784 27-550)
T1 sequence: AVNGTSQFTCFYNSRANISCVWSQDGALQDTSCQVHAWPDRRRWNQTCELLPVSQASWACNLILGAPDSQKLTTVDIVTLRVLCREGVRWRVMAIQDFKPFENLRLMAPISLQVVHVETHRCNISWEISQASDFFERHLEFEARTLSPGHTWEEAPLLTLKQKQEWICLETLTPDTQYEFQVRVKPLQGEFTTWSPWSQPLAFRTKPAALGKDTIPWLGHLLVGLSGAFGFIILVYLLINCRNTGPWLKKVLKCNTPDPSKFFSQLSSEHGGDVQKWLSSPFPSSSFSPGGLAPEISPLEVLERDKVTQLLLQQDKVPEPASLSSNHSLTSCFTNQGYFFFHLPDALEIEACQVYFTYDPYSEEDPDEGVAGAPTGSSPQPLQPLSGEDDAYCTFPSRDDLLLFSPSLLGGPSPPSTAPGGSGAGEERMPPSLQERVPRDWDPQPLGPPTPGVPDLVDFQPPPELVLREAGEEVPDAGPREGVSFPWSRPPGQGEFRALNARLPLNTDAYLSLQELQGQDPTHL

B1: Q13W SQVLKA (ligand)
chain: APTSSSTKKTQLWLSQLLVLLKAILNGINNYKNPKLTRMLTFKFYMPKKATELKHLQCLEEELKPLEEVLNLAQSKNFHLRPRDLISNINVIVLELKGSETTFMCEYADETATIVEFLNRWITFCQSIISTLT
B2: Q74H, SQVLKA (ligand)
chain: APTSSSTKKTQLQLSQLLVLLKAILNGINNYKNPKLTRMLTFKFYMPKKATELKHLQCLEEELKPLEEVLNLAHSKNFHLRPRDLISNINVIVLELKGSETTFMCEYADETATIVEFLNRWITFCQSIISTLT
B3: T51I, SQVLKA (ligand)
chain: APTSSSTKKTQLQLSQLLVLLKAILNGINNYKNPKLTRMLTFKFYMPKKAIELKHLQCLEEELKPLEEVLNLAQSKNFHLRPRDLISNINVIVLELKGSETTFMCEYADETATIVEFLNRWITFCQSIISTLT
B4: H55Y, SQVLKA (ligand)
chain: APTSSSTKKTQLQLSQLLVLLKAILNGINNYKNPKLTRMLTFKFYMPKKATELKYLQCLEEELKPLEEVLNLAQSKNFHLRPRDLISNINVIVLELKGSETTFMCEYADETATIVEFLNRWITFCQSIISTLT
B5: Q74N, SQVLKA (ligand)
chain: APTSSSTKKTQLQLSQLLVLLKAILNGINNYKNPKLTRMLTFKFYMPKKATELKHLQCLEEELKPLEEVLNLANSKNFHLRPRDLISNINVIVLELKGSETTFMCEYADETATIVEFLNRWITFCQSIISTLT

Assays:
[1] = target: T1, orthogonal hCD122 receptor (hoRb), …; assay: cell-based or functional assay
[2] = target: T1, orthogonal hCD122 receptor (hoRb), …; assay: cell-based or functional assay; remark: listed apart in the source
Wherever Relative Proliferation Fold Change 3F8 1:10 is given: reference of the scale not given here.
Wherever Relative Proliferation Fold Change 3F8 1:2 is given: reference of the scale not given here.
Wherever Relative Proliferation Fold Change 3F8 1:50 is given: reference of the scale not given here.
Wherever Relative Proliferation Fold Change NKL 1:10 is given: reference of the scale not given here.
Wherever Relative Proliferation Fold Change NKL 1:2 is given: reference of the scale not given here.
Wherever Relative Proliferation Fold Change NKL 1:50 is given: reference of the scale not given here.

| Binder | NKL Ortho Proliferation Signal 1:2 [1] | NKL Ortho Proliferation Signal 1:10 [1] | NKL Ortho Proliferation Signal 1:50 [1] | Relative Proliferation Fold Change NKL 1:2 [1] [fold] | Relative Proliferation Fold Change NKL 1:10 [1] [fold] | Relative Proliferation Fold Change NKL 1:50 [1] [fold] | 3F8 Ortho Proliferation Signal 1:2 [2] [cts/min] | 3F8 Ortho Proliferation Signal 1:10 [2] [cts/min] | 3F8 Ortho Proliferation Signal 1:50 [2] [cts/min] | Relative Proliferation Fold Change 3F8 1:2 [2] [fold] | Relative Proliferation Fold Change 3F8 1:10 [2] [fold] | Relative Proliferation Fold Change 3F8 1:50 [2] [fold] |
| --- | --- | --- | --- | --- | --- | --- | --- | --- | --- | --- | --- | --- |
| B1 | 13700 | 12900 | 8730 | 1.24 | 0.84 | 0.63 | 27000 | 16900 | 6420 | 148 | 22.2 | 10.9 |
| B2 | 58300 | 50300 | 23000 | 3.89 | 3.18 | 1.6 | 35100 | 28700 | 21200 | 64.7 | 42.9 | 53 |
| B3 | 50800 | 37900 | 18500 | 3.57 | 2.64 | 1.4 | 31900 | 20200 | 11600 | 111 | 43.1 | 15.6 |
| B4 | 47100 | 37100 | 17800 | 3.72 | 2.34 | 1.22 | 24600 | 29500 | 16500 | 63 | 23.5 | 16.7 |
| B5 | 55100 | 47400 | 22600 | 4.23 | 3.18 | 1.67 | 34200 | 36400 | 21900 | 116 | 96.8 | 17.5 |
